Measurements reported in patent US20150297748A1 (Daiichi Sankyo, published 2015).

T1: CD30 (UniProt P28908 19-595, limits assumed)
T1 sequence (looked up): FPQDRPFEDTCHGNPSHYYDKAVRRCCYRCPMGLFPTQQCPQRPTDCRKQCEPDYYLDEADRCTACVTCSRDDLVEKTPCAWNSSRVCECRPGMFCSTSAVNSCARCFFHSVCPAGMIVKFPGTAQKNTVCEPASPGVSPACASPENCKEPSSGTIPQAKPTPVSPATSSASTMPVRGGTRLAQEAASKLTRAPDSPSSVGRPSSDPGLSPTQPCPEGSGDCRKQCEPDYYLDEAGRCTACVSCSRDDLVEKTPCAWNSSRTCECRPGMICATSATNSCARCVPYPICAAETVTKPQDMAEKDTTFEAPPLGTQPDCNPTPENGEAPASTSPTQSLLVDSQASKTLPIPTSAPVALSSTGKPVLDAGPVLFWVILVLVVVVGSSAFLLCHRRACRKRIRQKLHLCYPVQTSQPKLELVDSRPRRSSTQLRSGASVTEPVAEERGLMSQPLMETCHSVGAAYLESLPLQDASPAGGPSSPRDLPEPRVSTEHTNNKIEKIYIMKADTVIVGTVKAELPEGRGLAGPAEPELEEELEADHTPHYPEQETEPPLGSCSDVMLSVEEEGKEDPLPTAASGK

T2: human B7-H3 variant 1 (human, UniProt Q5ZPR3 27-534)
T2 sequence: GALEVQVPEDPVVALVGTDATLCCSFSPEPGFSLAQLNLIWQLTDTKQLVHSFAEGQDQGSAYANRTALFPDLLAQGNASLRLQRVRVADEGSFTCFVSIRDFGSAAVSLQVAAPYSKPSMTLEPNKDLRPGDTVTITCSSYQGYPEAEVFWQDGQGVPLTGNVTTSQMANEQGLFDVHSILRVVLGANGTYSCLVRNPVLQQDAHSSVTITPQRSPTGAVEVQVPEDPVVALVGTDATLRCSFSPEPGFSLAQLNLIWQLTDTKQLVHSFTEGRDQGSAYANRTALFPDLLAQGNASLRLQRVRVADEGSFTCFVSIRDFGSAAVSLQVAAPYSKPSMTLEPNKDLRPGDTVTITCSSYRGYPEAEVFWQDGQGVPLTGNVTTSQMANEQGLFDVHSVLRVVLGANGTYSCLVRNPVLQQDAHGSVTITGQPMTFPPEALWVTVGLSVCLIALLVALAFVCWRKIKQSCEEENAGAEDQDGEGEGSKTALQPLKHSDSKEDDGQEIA


Each binder was assayed against T1, CD30 (assay: cell-based or functional assay).

| Binder | IC50, cytotoxic activity against the SR cells [nM] |
| --- | --- |
| Antibody-drug conjugate (6) (antibody, human IgG1, kappa, V domains shown, drug-linker 6-maleimidohexanoyl-GGFG-NH-(CH2)3-C(=O)-exatecan (compound of Process 3 of Example 2) on cysteines of the reduced hinge disulfide bonds; average 3.3 per antibody molecule; positions not given) VH: QIQLQQSGPEVVKPGASVKISCKASGYTFTDYYITWVKQKPGQGLEWIGWIYPGSGNTKYNEKFKGKATLTVDTSSSTAFMQLSSLTSEDTAVYFCANYGNYWFAYWGQGTQVTVSA VL: DIVLTQSPASLAVSLGQRATISCKASQSVDFDGDSYMNWYQQKPGQPPKVLIYAASNLESGIPARFSGSGSGTDFTLNIHPVEEEDAATYYCQQSNQDPWTFGGGTKLEIKR | < 0.01 |
| Antibody-drug conjugate (65) (antibody, V domains shown, drug-linker 6-maleimidohexanoyl-GGFG-NH-CH2-O-CH2-C(=O)-exatecan (compound of Process 8 of Example 58) on cysteines of the reduced hinge disulfide bonds; average 6.8 per antibody molecule; positions not given) VH: QIQLQQSGPEVVKPGASVKISCKASGYTFTDYYITWVKQKPGQGLEWIGWIYPGSGNTKYNEKFKGKATLTVDTSSSTAFMQLSSLTSEDTAVYFCANYGNYWFAYWGQGTQVTVSA VL: DIVLTQSPASLAVSLGQRATISCKASQSVDFDGDSYMNWYQQKPGQPPKVLIYAASNLESGIPARFSGSGSGTDFTLNIHPVEEEDAATYYCQQSNQDPWTFGGGTKLEIKR | < 0.01 |
| Antibody-drug conjugate (22) (antibody, V domains shown, drug-linker 3-maleimidopropanoyl-NH-(CH2CH2O)2-CH2CH2-C(=O)-GGFG-NH-(CH2)3-C(=O)-exatecan (compound of Process 1 of Example 14) on cysteines of the reduced hinge disulfide bonds; average 2.5 per antibody molecule; positions not given) VH: QIQLQQSGPEVVKPGASVKISCKASGYTFTDYYITWVKQKPGQGLEWIGWIYPGSGNTKYNEKFKGKATLTVDTSSSTAFMQLSSLTSEDTAVYFCANYGNYWFAYWGQGTQVTVSA VL: DIVLTQSPASLAVSLGQRATISCKASQSVDFDGDSYMNWYQQKPGQPPKVLIYAASNLESGIPARFSGSGSGTDFTLNIHPVEEEDAATYYCQQSNQDPWTFGGGTKLEIKR | < 0.1 |
| Antibody-drug conjugate (23) (antibody, V domains shown, drug-linker 3-maleimidopropanoyl-NH-(CH2CH2O)2-CH2CH2-C(=O)-GGFG-NH-(CH2)3-C(=O)-exatecan (compound of Process 1 of Example 14) on cysteines of the reduced hinge disulfide bonds; average 7.1 per antibody molecule; positions not given) VH: QIQLQQSGPEVVKPGASVKISCKASGYTFTDYYITWVKQKPGQGLEWIGWIYPGSGNTKYNEKFKGKATLTVDTSSSTAFMQLSSLTSEDTAVYFCANYGNYWFAYWGQGTQVTVSA VL: DIVLTQSPASLAVSLGQRATISCKASQSVDFDGDSYMNWYQQKPGQPPKVLIYAASNLESGIPARFSGSGSGTDFTLNIHPVEEEDAATYYCQQSNQDPWTFGGGTKLEIKR | < 0.01 |
| Antibody-drug conjugate (38) (antibody, V domains shown, drug-linker from the N-succinimidyl ester of suberoyl-GGFG-NH-(CH2)3-C(=O)-exatecan (compound of Process 1 of Example 37); average 2.7 per antibody molecule; chain and positions not stated) VH: QIQLQQSGPEVVKPGASVKISCKASGYTFTDYYITWVKQKPGQGLEWIGWIYPGSGNTKYNEKFKGKATLTVDTSSSTAFMQLSSLTSEDTAVYFCANYGNYWFAYWGQGTQVTVSA VL: DIVLTQSPASLAVSLGQRATISCKASQSVDFDGDSYMNWYQQKPGQPPKVLIYAASNLESGIPARFSGSGSGTDFTLNIHPVEEEDAATYYCQQSNQDPWTFGGGTKLEIKR | < 0.01 |
| Antibody-drug conjugate (64) (antibody, V domains shown, drug-linker 6-maleimidohexanoyl-GGFG-NH-CH2-O-CH2-C(=O)-exatecan (compound of Process 8 of Example 58) on cysteines of the reduced hinge disulfide bonds; average 3.7 per antibody molecule; positions not given) VH: QIQLQQSGPEVVKPGASVKISCKASGYTFTDYYITWVKQKPGQGLEWIGWIYPGSGNTKYNEKFKGKATLTVDTSSSTAFMQLSSLTSEDTAVYFCANYGNYWFAYWGQGTQVTVSA VL: DIVLTQSPASLAVSLGQRATISCKASQSVDFDGDSYMNWYQQKPGQPPKVLIYAASNLESGIPARFSGSGSGTDFTLNIHPVEEEDAATYYCQQSNQDPWTFGGGTKLEIKR | < 0.01 |
| Antibody-drug conjugate (7) (antibody, V domains shown, drug-linker 6-maleimidohexanoyl-GGFG-NH-(CH2)3-C(=O)-exatecan (compound of Process 3 of Example 2) on cysteines of the reduced hinge disulfide bonds; average 3.8 per antibody molecule; positions not given) VH: QIQLQQSGPEVVKPGASVKISCKASGYTFTDYYITWVKQKPGQGLEWIGWIYPGSGNTKYNEKFKGKATLTVDTSSSTAFMQLSSLTSEDTAVYFCANYGNYWFAYWGQGTQVTVSA VL: DIVLTQSPASLAVSLGQRATISCKASQSVDFDGDSYMNWYQQKPGQPPKVLIYAASNLESGIPARFSGSGSGTDFTLNIHPVEEEDAATYYCQQSNQDPWTFGGGTKLEIKR | < 0.01 |

Each binder was assayed against T2, human B7-H3 variant 1 (assay: cell-based or functional assay).

| Binder | IC50, cytotoxic activity against the CEM_V1-3.1-2 cells [nM] |
| --- | --- |
| Antibody-drug conjugate (5) (antibody, human IgG1, kappa, V domains shown, drug-linker 6-maleimidohexanoyl-GGFG-NH-(CH2)3-C(=O)-exatecan (compound of Process 3 of Example 2) on cysteines of the reduced hinge disulfide bonds; average 6.7 per antibody molecule; positions not given) VH: QVQLVQSGAEVKKPGSSVKVSCKASGYTFTNYVMHWVRQAPGQGLEWMGYINPYNDDVKYNEKFKGRVTITADESTSTAYMELSSLRSEDTAVYYCARWGYYGSPLYYFDYWGQGTLVTVSS VL: EIVLTQSPATLSLSPGERATLSCRASSRLIYMHWYQQKPGQAPRPLIYATSNLASGIPARFSGSGSGTDFTLTISSLEPEDFAVYYCQQWNSNPPTFGQGTKVEIKR | < 0.1 |
